Experimental data as given in the supplement of paper PMC10724198.
± gives the standard deviation of the averaged measurements.

System: Saccharomyces cerevisiae
Assay: protein stability index of tFT-peptide fusion (C-terminal peptide) (PSI (0-1 scale)); higher = more stable (slower turnover)
Settings: temperature: 30 C
Method: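 MPS profiling in S. cerevisiae of the yeast C-terminome library: the last 12 aa of each annotated ORF are fused to the C-terminus of a sfGFP-mCherry timer, after a GGGS linker. Cells are FACS-sorted into 8 mCherry/sfGFP bins and deep-sequenced. PSI runs from 0 (unstable) to 1 (stable); wild type and das1Δ backgrounds, two technical replicates each.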

[1] = genetic background: das1 deletion

Sequence	protein stability index [1]	protein stability index (genetic background: wild type)
LNEPKDSAENKI [SRC1 C-terminal 12 aa]	0.6958 ± 0.0062	0.659 ± 0.026
EKAKKSLSKMFS [CPR6 C-terminal 12 aa]	0.688 ± 0.018	0.6927 ± 0.0033
IQYYEEILRRGL [SPP1 C-terminal 12 aa]	0.683 ± 0.024	0.677 ± 0.027
PELSSTVSHNRA [WSC3 C-terminal 12 aa]	0.693 ± 0.035	0.783 ± 0.07
SSESEAVKKAKS [CIC1 C-terminal 12 aa]	0.668 ± 0.031	0.685 ± 0.062
SDLNVLLQIKHS [YNL228W C-terminal 12 aa]	0.7201 ± 0.00055	0.31 ± 0.015
IKLLKTHNRMSL [YNL277W-A C-terminal 12 aa]	0.6846 ± 0.0031	0.696 ± 0.036
EVTSLYTNASNA [DPC29 C-terminal 12 aa]	0.715 ± 0.011	0.703 ± 0.049
SVVSQPPPGYEQ [HSE1 C-terminal 12 aa]	0.7102 ± 0.0066	0.667 ± 0.02
VGNYFMAIQRLN [COQ3 C-terminal 12 aa]	0.731 ± 0.025	0.16 ± 0.017
ILILFTSINQRG [YOR366W C-terminal 12 aa]	0.589 ± 0.037	0.605 ± 0.039
STMQERFAESTD [VMA1 C-terminal 12 aa]	0.682 ± 0.011	0.706 ± 0.032
SFGIGSKVFSSM [YHR063W-A C-terminal 12 aa]	0.711 ± 0.021	0.695 ± 0.01
KGRALENLPDES [SSM4 C-terminal 12 aa]	0.675 ± 0.016	0.692 ± 0.032
RLEQGSNGFMFA [NAM8 C-terminal 12 aa]	0.702 ± 0.026	0.699 ± 0.011
SVENIFMIWFFY [YJL022W C-terminal 12 aa]	0.5089 ± 0.0034	0.494 ± 0.011
VESTRETGGCNC [YPT53 C-terminal 12 aa]	0.692 ± 0.027	0.65486 ± 0.00056
PRSDDEDDEDSE [FAP7 C-terminal 12 aa]	0.683 ± 0.026	0.671 ± 0.025
LQYKKVGKWRED [URB2 C-terminal 12 aa]	0.724 ± 0.017	0.736 ± 0.0096
NIKALNQSKSHM [SPO77 C-terminal 12 aa]	0.684 ± 0.022	0.6701 ± 0.003
PSTLIITTLLFK [YJR023C C-terminal 12 aa]	0.618 ± 0.051	0.61 ± 0.017

Sequence	protein stability index [1]	protein stability index (genetic background: wild type)
AIGNCVQDEEKL [AVL9 C-terminal 12 aa]	0.717 ± 0.0097	0.679 ± 0.035
LKLKRDLLRLKR [CIP1 C-terminal 12 aa]	0.682 ± 0.019	0.651 ± 0.021
FGIKKNDLKKSN [GSF2 C-terminal 12 aa]	0.708 ± 0.014	0.705 ± 0.023
SKVNSTRLVSRK [KAR3 C-terminal 12 aa]	0.6908 ± 0.0058	0.723 ± 0.014
GGLSDIGKNTSN [HUG1 C-terminal 12 aa]	0.693 ± 0.013	0.684 ± 0.016
DGLLKNVWSYSR [RPS21A C-terminal 12 aa]	0.7161 ± 0.0069	0.7137 ± 0.0025
SVHPLIISYSQL [TRM732 C-terminal 12 aa]	0.716 ± 0.05	0.637 ± 0.024
TSPIGEFQSIKH [SPT21 C-terminal 12 aa]	0.731 ± 0.015	0.674 ± 0.037
STKTVPLNFLFL [YDL050C C-terminal 12 aa]	0.724 ± 0.01	0.677 ± 0.032
DSVIVVLKTPVE [SMD2 C-terminal 12 aa]	0.67383 ± 0.00026	0.658 ± 0.041
IYVCGRLTNDRK [YIL171W-A C-terminal 12 aa]	0.6871 ± 0.0066	0.65 ± 0.015
VKRNKYPPRPVH [REF2 C-terminal 12 aa]	0.704 ± 0.023	0.74 ± 0.0081
NGHVSKKAKVTK [LYS21 C-terminal 12 aa]	0.6885 ± 0.0043	0.667 ± 0.021
PPNTLWHYNFRK [MRPL28 C-terminal 12 aa]	0.751 ± 0.024	0.69 ± 0.018
KMDKRAKNSDSA [RPL8A C-terminal 12 aa]	0.691 ± 0.0034	0.6886 ± 0.0018
EAAKKSEKKSKK [RPL34B C-terminal 12 aa]	0.702 ± 0.015	0.706 ± 0.042
VASLPSRYSRYD [ALR1 C-terminal 12 aa]	0.711 ± 0.024	0.654 ± 0.013
LHTEREKKKKKF [YKR040C C-terminal 12 aa]	0.725 ± 0.043	0.682 ± 0.1
MQTHYILMKAQW [PPM1 C-terminal 12 aa]	0.579 ± 0.008	0.5353 ± 0.0021
SSAHMSSNAIQR [CDC10 C-terminal 12 aa]	0.7077 ± 0.0023	0.721 ± 0.016
NSFDGLLVYLSN [CBF2 C-terminal 12 aa]	0.6572 ± 0.0033	0.6615 ± 0.0065

Sequence	protein stability index [1]	protein stability index (genetic background: wild type)
QGMLQSFLDREL [YOL057W C-terminal 12 aa]	0.721 ± 0.023	0.666 ± 0.042
CYQDYNHDHRSH [OSW2 C-terminal 12 aa]	0.7147 ± 0.0055	0.6835 ± 0.0018
TSSQKIYHTSNK [IPK1 C-terminal 12 aa]	0.686 ± 0.05	0.672 ± 0.049
VKHQPKTYRTKK [SGO1 C-terminal 12 aa]	0.676 ± 0.015	0.677 ± 0.053
SPGEYEIGDMEN [YDR061W C-terminal 12 aa]	0.675 ± 0.016	0.681 ± 0.048
LRKRLSCYMLIL [YDR114C C-terminal 12 aa]	0.576 ± 0.013	0.4114 ± 0.0012
PWFAPIREQIEK [CKA1 C-terminal 12 aa]	0.722 ± 0.011	0.7489 ± 0.0034
EEKTKKEKSLLQ [NPP2 C-terminal 12 aa]	0.7035 ± 0.0011	0.726 ± 0.072
IATIENKFDFEI [YCR099C C-terminal 12 aa]	0.712 ± 0.013	0.694 ± 0.042
RRLEMEIANLQE [SPC34 C-terminal 12 aa]	0.726 ± 0.036	0.706 ± 0.028
KGGEDGSLVSSN [NHP10 C-terminal 12 aa]	0.688 ± 0.014	0.709 ± 0.011
KCLYVQVITKSN [ECM8 C-terminal 12 aa]	0.5487 ± 0.0052	0.256 ± 0.019
AMMKAEENFVKS [MAG1 C-terminal 12 aa]	0.655 ± 0.029	0.6762 ± 0.00091
ELDDILGSDSDF [MPH1 C-terminal 12 aa]	0.711 ± 0.02	0.6837 ± 0.0036
STKFLRSFGQTI [SWP1 C-terminal 12 aa]	0.70697 ± 0.0003	0.686 ± 0.012
LTLNWGVEIVKK [RDI1 C-terminal 12 aa]	0.73 ± 0.03	0.725 ± 0.017
GNINDDDDGFFD [PLP2 C-terminal 12 aa]	0.724 ± 0.021	0.698 ± 0.019
QPDDKTKGILDR [ERV41 C-terminal 12 aa]	0.7292 ± 0.0051	0.682 ± 0.03
TLSKEPFLVFSF [YDL185C-A C-terminal 12 aa]	0.499 ± 0.026	0.494 ± 0.025
NVTKLAKERVLF [CPA1 C-terminal 12 aa]	0.6847 ± 0.0048	0.703 ± 0.055
LARGGVASFTVK [RNH70 C-terminal 12 aa]	0.703 ± 0.0078	0.652 ± 0.0088

Sequence	protein stability index [1]	protein stability index (genetic background: wild type)
RFRVVLGDSDDE [PSH1 C-terminal 12 aa]	0.672 ± 0.043	0.721 ± 0.075
CWMLWLQDRPVC [YBL112C C-terminal 12 aa]	0.627 ± 0.017	0.625 ± 0.02
SQLPSLYAPSYY [SSU72 C-terminal 12 aa]	0.703 ± 0.02	0.7264 ± 0.0056
AVFYIFETLSAL [ORT1 C-terminal 12 aa]	0.653 ± 0.015	0.654 ± 0.0084
KKKFSFFGKRKK [PAM1 C-terminal 12 aa]	0.684 ± 0.017	0.704 ± 0.048
LLYHMDLLLKVK [VID28 C-terminal 12 aa]	0.299 ± 0.026	0.365 ± 0.015
DEQKHNENENSR [RPO21 C-terminal 12 aa]	0.693 ± 0.022	0.708 ± 0.021
RTGSQSPPSSSQ [MED7 C-terminal 12 aa]	0.707 ± 0.022	0.673 ± 0.025
ATRRHLAHAPKL [DPI8 C-terminal 12 aa]	0.799 ± 0.016	0.782 ± 0.064
MFKCARQSEFDK [MTG2 C-terminal 12 aa]	0.6881 ± 0.0066	0.6829 ± 0.0037
LTPADLQFLFNN [RAD16 C-terminal 12 aa]	0.72 ± 0.013	0.708 ± 0.017
EIKCCHNGRALK [SAT4 C-terminal 12 aa]	0.668 ± 0.023	0.697 ± 0.06
KKNRSGLRHSES [SQS1 C-terminal 12 aa]	0.683 ± 0.011	0.6606 ± 0.0038
RSPKKKKNYHKR [NUR1 C-terminal 12 aa]	0.74 ± 0.061	0.6729 ± 0.006
KQIAKQSSKMMK [VMR1 C-terminal 12 aa]	0.686 ± 0.0041	0.708 ± 0.03
YWRKQYPDADIP [YCR007C C-terminal 12 aa]	0.71925 ± 0.00051	0.747 ± 0.025
LGLSLRRGTEIW [MRP8 C-terminal 12 aa]	0.72702 ± 0.00035	0.72218 ± 0.00069
EFLQIMKARISK [SEC24 C-terminal 12 aa]	0.686 ± 0.011	0.716 ± 0.048
LKSVKHSIRVYT [YPR012W C-terminal 12 aa]	0.627 ± 0.015	0.604 ± 0.028
